Experimental data published in the supplement of paper PMC10567573.

B1: ATE1 (parent)
chain: DYFPSEDFYRCGYCKNESGSRSNG
B2: PPFIA4 (parent)
chain: YAGNLHESGVHGALLALDENFDHN

Variants of: B1
Test: protein stability index of a GFP-peptide fusion (GPS, HEK-293T) (PSI 1-6); higher = more stable
Conditions: c terminus: a fixed tail appended
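Note: lentivirally expressed fusions sorted by FACS into six bins by GFP to DsRed ratio, PSI derived from sequencing read proportions per bin multiplied by bin number.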

Protein stability index: each site, then its substitutions
Y13: N 3.83; P 3.75; Q 3.52; R 2.23; S 3.69; T 3.93; W 3.73
C14: A 4.24; D 4.47; E 4.6; F 3.44; G 3.81; H 4.16; I 3.97; K 3.65; L 3.28; M 4.25; N 3.4; P 3.53; Q 3.69; R 3.8; S 3.94; T 4.36; V 4.1; W 3.43; Y 3.04
K15: A 1.59; C 2.17; D 2.74; E 2.46; F 2.65; G 1.95; H 1.64; I 2.18; L 1.82; M 3.08; N 2.28; P 3.41; Q 2.65; R 1.17; S 2.42; T 1.85; V 2.18; W 2.25; Y 2.89
N16: A 3.01; C 1.47; D 2.79; F 1.62; H 2; I 1.74; L 1.53; M 2.62; P 2.23; Q 1.77; R 2.1; T 1.97; V 1.74; W 1.41; Y 2.43
E17: A 1.74; C 1.63; D 2.44; F 1.71; G 1.96; H 2.14; I 1.38; K 2.33; L 2.17; M 2.45; N 2; P 1.37; Q 1.9; R 2.78; S 1.83; T 2.77; V 1.4; W 1.78; Y 1.49
S18: A 2.67; C 1.08; E 2.53; F 3.12; H 1.95; I 1.53; K 2.33; L 1.84; M 1.24; N 1.35; P 2.2; Q 2.37; R 1.68; T 2.07; V 2.17; W 2.05; Y 1.69
G19: A 1.61; C 1.93; D 2.45; E 2.52; F 1.56; H 2.03; I 2.65; K 1.95; L 2; M 1.38; N 1.84; P 2.57; Q 2.9; R 1.76; S 2.15; T 2.04; V 2.14; W 3.29; Y 1.6
S20: A 2.83; C 1.86; D 2.25; E 2.5; F 1.72; G 2.53; H 2.1; I 2.01; K 2.36; L 1.33; M 2.51; N 1.79; P 2.36; Q 1.94; R 2.07; T 1.88; V 2.25; Y 1.75
R21: A 2.54; C 2.83; D 3.09; E 2.44; F 2.39; G 2.79; H 2.19; I 1.79; K 2.61; L 1.58; M 2.08; N 2.47; P 2.69; Q 2.67; S 2.22; T 2.24; V 2.5; W 2.03; Y 1.79
S22: A 1.85; C 2.17; D 2.6; E 2.52; F 1.58; G 2.04; H 2.01; I 2.54; K 2.02; L 1.57; M 3.37; N 2.07; P 2.46; Q 2.6; R 1.68; T 1.82; V 2.12; W 2.33; Y 2.42
N23: C 1.28; D 2.1; E 2.29; F 1.26; H 2.16; I 1.52; K 2.51; L 2.65; M 1.52; P 1.91; Q 2.53; R 1.76; S 2.32; T 2.1; V 1.25; W 2.6
G24: A 1.88; C 1.93; D 2.26; E 2.67; F 1.92; H 2.04; I 2.34; K 2.83; L 2.15; M 1.89; N 2.09; P 3; Q 1.93; R 2.5; S 1.62; T 2.35; V 1.75; W 1.78; Y 2.13

Variants of: B2
Test: as above
Conditions: c terminus: a fixed tail appended

Protein stability index, by site and new letter:
Y1: A 4.8; C 3.94; D 4.8; E 5.05; F 2.04; G 5.06; H 4.95; I 3.86; K 4.5; L 4.49; M 4.81; N 4.81; P 5.39; Q 4.64; R 3.7; S 5.03; T 4.26; V 4.85; W 3.77
A2: C 2.38; D 4.38; E 4.19; F 3.84; G 3.49; H 1.85; I 2.12; K 4.68; L 3.65; M 3.23; N 4.32; P 3.96; Q 3.23; R 4.27; S 3.31; T 3.09; V 1.45; W 3.26; Y 3.07
G3: A 2.79; C 2.64; D 3.83; E 4.67; F 2.29; H 2.92; I 2.81; K 3.42; L 3.73; M 3.55; N 2.98; P 2.29; Q 3.12; R 2.72; S 2.95; T 2.69; V 3.11; W 2.56; Y 1.99
N4: A 2.48; C 2.03; D 3.55; E 3.82; F 1.75; G 2.65; H 2.73; I 2.53; K 2.09; L 2.33; M 2.29; P 2.77; Q 3.69; R 1.93; S 1.87; T 2.23; V 2.18; W 1.67; Y 2.2
L5: A 2.56; C 2.58; D 3.71; E 4.34; F 2.02; G 2.21; H 2.38; I 1.94; K 2.86; M 2.23; N 2.96; P 2.94; Q 2.94; R 3.11; S 2.72; T 2.84; V 2.12; W 3.46; Y 1.82
H6: A 2.78; C 2.92; D 2.72; E 3.7; F 1.99; G 2.82; I 2.23; K 2.24; L 2.01; M 2.09; N 2.05; P 2.98; Q 2.19; R 1.92; S 2.27; T 2.83; V 2.5; Y 1.88
E7: A 1.9; C 1.67; D 3.14; F 2.77; G 2; H 1.77; I 1.54; K 1.52; L 2.34; M 2.02; N 1.81; P 1.95; Q 2.13; R 1.44; S 2.58
